{
  "source": "the supplement of paper PMC10567573",
  "parents": {"B1": {"name": "TOR1AIP2 (parent)", "chain": "SPGHSSAGQEGEDTLRRRLLAPEA"}},
  "data": [
    {"variants_of": "B1", "experiment": "protein stability index of a GFP-peptide fusion (GPS, HEK-293T) (PSI 1-6); higher = more stable", "conditions": "c terminus: a fixed tail appended", "values": [
      {"variant": "SPGHSSAGQEGEDTLRRRLLAPET", "note": "[A24T]", "protein stability index": 4.61},
      {"variant": "SPGHSSAGQEGEDTLRRRLLAPEE", "note": "[A24E]", "protein stability index": 5.36},
      {"variant": "SPGHSSAGQEGEDTLRRRLLAPEC", "note": "[A24C]", "protein stability index": 4.27},
      {"variant": "SPGHSSAGQEGEDTLRRRLLAPEH", "note": "[A24H]", "protein stability index": 4.43},
      {"variant": "SPGHSSAGQEGEDTLRRRLLAPEY", "note": "[A24Y]", "protein stability index": 3.42},
      {"variant": "SPGHSSAGQEGEDTLRRRLLAPEI", "note": "[A24I]", "protein stability index": 4.2},
      {"variant": "SPGHSSAGQEGEDTLRRRLLAPEQ", "note": "[A24Q]", "protein stability index": 4.82},
      {"variant": "SPGHSSAGQEGEDTLRRRLLAPEK", "note": "[A24K]", "protein stability index": 4.82},
      {"variant": "SPGHSSAGQEGEDTLRRRLLAPEF", "note": "[A24F]", "protein stability index": 3.98},
      {"variant": "SPGHSSAGQEGEDTLRRRLLAPED", "note": "[A24D]", "protein stability index": 5.29},
      {"variant": "SPGHSSAGQEGEDTLRRRLLAPEW", "note": "[A24W]", "protein stability index": 2.94},
      {"variant": "SPGHSSAGQEGEDTLRRRLLAPES", "note": "[A24S]", "protein stability index": 4.35},
      {"variant": "SPGHSSAGQEGEDTLRRRLLAPEM", "note": "[A24M]", "protein stability index": 2.76},
      {"variant": "SPGHSSAGQEGEDTLRRRLLAPEG", "note": "[A24G]", "protein stability index": 5.14},
      {"variant": "SPGHSSAGQEGEDTLRRRLLAPEL", "note": "[A24L]", "protein stability index": 3.02},
      {"variant": "SPGHSSAGQEGEDTLRRRLLAPER", "note": "[A24R]", "protein stability index": 4.54},
      {"variant": "SPGHSSAGQEGEDTLRRRLLAPEV", "note": "[A24V]", "protein stability index": 4.59},
      {"variant": "SPGHSSAGQEGEDTLRRRLLAPEN", "note": "[A24N]", "protein stability index": 4.83},
      {"variant": "SPGHSSAGQEGEDTLRRRLLAQEA", "note": "[P22Q]", "protein stability index": 5.42},
      {"variant": "SPGHSSAGQEGEDTLRRRLLAMEA", "note": "[P22M]", "protein stability index": 4.93},
      {"variant": "SPGHSSAGQEGEDTLRRRLLAREA", "note": "[P22R]", "protein stability index": 4.99},
      {"variant": "SPGHSSAGQEGEDTLRRRLLAHEA", "note": "[P22H]", "protein stability index": 5.27},
      {"variant": "SPGHSSAGQEGEDTLRRRLLAWEA", "note": "[P22W]", "protein stability index": 4.84},
      {"variant": "SPGHSSAGQEGEDTLRRRLLAKEA", "note": "[P22K]", "protein stability index": 5.46},
      {"variant": "SPGHSSAGQEGEDTLRRRLLAIEA", "note": "[P22I]", "protein stability index": 5.16},
      {"variant": "SPGHSSAGQEGEDTLRRRLLALEA", "note": "[P22L]", "protein stability index": 4.59},
      {"variant": "SPGHSSAGQEGEDTLRRRLLAYEA", "note": "[P22Y]", "protein stability index": 4.41},
      {"variant": "SPGHSSAGQEGEDTLRRRLLAGEA", "note": "[P22G]", "protein stability index": 5.11},
      {"variant": "SPGHSSAGQEGEDTLRRRLLASEA", "note": "[P22S]", "protein stability index": 4.92},
      {"variant": "SPGHSSAGQEGEDTLRRRLLATEA", "note": "[P22T]", "protein stability index": 4.47},
      {"variant": "SPGHSSAGQEGEDTLRRRLLAAEA", "note": "[P22A]", "protein stability index": 4.42},
      {"variant": "SPGHSSAGQEGEDTLRRRLLAEEA", "note": "[P22E]", "protein stability index": 4.95},
      {"variant": "SPGHSSAGQEGEDTLRRRLLACEA", "note": "[P22C]", "protein stability index": 4.41},
      {"variant": "SPGHSSAGQEGEDTLRRRLLAFEA", "note": "[P22F]", "protein stability index": 4.92},
      {"variant": "SPGHSSAGQEGEDTLRRRLLADEA", "note": "[P22D]", "protein stability index": 5.34},
      {"variant": "SPGHSSAGQEGEDTLRRRLLAVEA", "note": "[P22V]", "protein stability index": 4.8},
      {"variant": "SPGHSSAGQEGEDTLRRRLLANEA", "note": "[P22N]", "protein stability index": 5.76},
      {"variant": "SPGHSSAGQEGEDTLRHRLLAPEA", "note": "[R17H]", "protein stability index": 3.85},
      {"variant": "SPGHSSAGQEGEDTLRSRLLAPEA", "note": "[R17S]", "protein stability index": 4.71},
      {"variant": "SPGHSSAGQEGEDTLRLRLLAPEA", "note": "[R17L]", "protein stability index": 3.31},
      {"variant": "SPGHSSAGQEGEDTLRARLLAPEA", "note": "[R17A]", "protein stability index": 4.63},
      {"variant": "SPGHSSAGQEGEDTLRIRLLAPEA", "note": "[R17I]", "protein stability index": 3.81},
      {"variant": "SPGHSSAGQEGEDTLRMRLLAPEA", "note": "[R17M]", "protein stability index": 3.54},
      {"variant": "SPGHSSAGQEGEDTLRTRLLAPEA", "note": "[R17T]", "protein stability index": 4.58},
      {"variant": "SPGHSSAGQEGEDTLRERLLAPEA", "note": "[R17E]", "protein stability index": 4.42},
      {"variant": "SPGHSSAGQEGEDTLRYRLLAPEA", "note": "[R17Y]", "protein stability index": 2.48},
      {"variant": "SPGHSSAGQEGEDTLRKRLLAPEA", "note": "[R17K]", "protein stability index": 4.76},
      {"variant": "SPGHSSAGQEGEDTLRGRLLAPEA", "note": "[R17G]", "protein stability index": 5},
      {"variant": "SPGHSSAGQEGEDTLRNRLLAPEA", "note": "[R17N]", "protein stability index": 4.67},
      {"variant": "SPGHSSAGQEGEDTLRDRLLAPEA", "note": "[R17D]", "protein stability index": 5.46},
      {"variant": "SPGHSSAGQEGEDTLRQRLLAPEA", "note": "[R17Q]", "protein stability index": 4.37},
      {"variant": "SPGHSSAGQEGEDTLRFRLLAPEA", "note": "[R17F]", "protein stability index": 2.09},
      {"variant": "SPGHSSAGQEGEDTLRPRLLAPEA", "note": "[R17P]", "protein stability index": 5.04},
      {"variant": "SPGHSSAGQEGEDTLRVRLLAPEA", "note": "[R17V]", "protein stability index": 3.9},
      {"variant": "SPGHSSAGQEGEDTLRWRLLAPEA", "note": "[R17W]", "protein stability index": 2.36},
      {"variant": "SPGHSSAGQEGEDTLRCRLLAPEA", "note": "[R17C]", "protein stability index": 4.51},
      {"variant": "SPGHSSAGQEGEDTLRRRLLWPEA", "note": "[A21W]", "protein stability index": 4.16},
      {"variant": "SPGHSSAGQEGEDTLRRRLLQPEA", "note": "[A21Q]", "protein stability index": 4.94},
      {"variant": "SPGHSSAGQEGEDTLRRRLLPPEA", "note": "[A21P]", "protein stability index": 5.09},
      {"variant": "SPGHSSAGQEGEDTLRRRLLRPEA", "note": "[A21R]", "protein stability index": 4.89},
      {"variant": "SPGHSSAGQEGEDTLRRRLLYPEA", "note": "[A21Y]", "protein stability index": 4.38},
      {"variant": "SPGHSSAGQEGEDTLRRRLLNPEA", "note": "[A21N]", "protein stability index": 4.9},
      {"variant": "SPGHSSAGQEGEDTLRRRLLMPEA", "note": "[A21M]", "protein stability index": 4.19},
      {"variant": "SPGHSSAGQEGEDTLRRRLLDPEA", "note": "[A21D]", "protein stability index": 5.37},
      {"variant": "SPGHSSAGQEGEDTLRRRLLIPEA", "note": "[A21I]", "protein stability index": 4.51},
      {"variant": "SPGHSSAGQEGEDTLRRRLLVPEA", "note": "[A21V]", "protein stability index": 4.86},
      {"variant": "SPGHSSAGQEGEDTLRRRLLFPEA", "note": "[A21F]", "protein stability index": 4.71},
      {"variant": "SPGHSSAGQEGEDTLRRRLLCPEA", "note": "[A21C]", "protein stability index": 3.31},
      {"variant": "SPGHSSAGQEGEDTLRRRLLTPEA", "note": "[A21T]", "protein stability index": 5.39},
      {"variant": "SPGHSSAGQEGEDTLRRRLLLPEA", "note": "[A21L]", "protein stability index": 4.58},
      {"variant": "SPGHSSAGQEGEDTLRRRLLGPEA", "note": "[A21G]", "protein stability index": 5.31},
      {"variant": "SPGHSSAGQEGEDTLRRRLLSPEA", "note": "[A21S]", "protein stability index": 3.08},
      {"variant": "SPGHSSAGQEGEDTLRRRLLHPEA", "note": "[A21H]", "protein stability index": 5.26},
      {"variant": "SPGHSSAGQEGEDTLRRRLLEPEA", "note": "[A21E]", "protein stability index": 5.23},
      {"variant": "SPGHSSAGQEGEDTLRRRLLKPEA", "note": "[A21K]", "protein stability index": 4.89},
      {"variant": "SPGHSSAGQEGEDTLRRRDLAPEA", "note": "[L19D]", "protein stability index": 5.35},
      {"variant": "SPGHSSAGQEGEDTLRRRALAPEA", "note": "[L19A]", "protein stability index": 5.4},
      {"variant": "SPGHSSAGQEGEDTLRRRYLAPEA", "note": "[L19Y]", "protein stability index": 4.86},
      {"variant": "SPGHSSAGQEGEDTLRRRGLAPEA", "note": "[L19G]", "protein stability index": 5.45},
      {"variant": "SPGHSSAGQEGEDTLRRRNLAPEA", "note": "[L19N]", "protein stability index": 5.34},
      {"variant": "SPGHSSAGQEGEDTLRRRMLAPEA", "note": "[L19M]", "protein stability index": 3.39},
      {"variant": "SPGHSSAGQEGEDTLRRRQLAPEA", "note": "[L19Q]", "protein stability index": 5.33},
      {"variant": "SPGHSSAGQEGEDTLRRRVLAPEA", "note": "[L19V]", "protein stability index": 4.9},
      {"variant": "SPGHSSAGQEGEDTLRRRKLAPEA", "note": "[L19K]", "protein stability index": 5.54},
      {"variant": "SPGHSSAGQEGEDTLRRRELAPEA", "note": "[L19E]", "protein stability index": 5.46},
      {"variant": "SPGHSSAGQEGEDTLRRRCLAPEA", "note": "[L19C]", "protein stability index": 4.99},
      {"variant": "SPGHSSAGQEGEDTLRRRWLAPEA", "note": "[L19W]", "protein stability index": 4.3},
      {"variant": "SPGHSSAGQEGEDTLRRRSLAPEA", "note": "[L19S]", "protein stability index": 5.24},
      {"variant": "SPGHSSAGQEGEDTLRRRRLAPEA", "note": "[L19R]", "protein stability index": 4.89},
      {"variant": "SPGHSSAGQEGEDTLRRRPLAPEA", "note": "[L19P]", "protein stability index": 5.29},
      {"variant": "SPGHSSAGQEGEDTLRRRFLAPEA", "note": "[L19F]", "protein stability index": 4.73},
      {"variant": "SPGHSSAGQEGEDTLRRRHLAPEA", "note": "[L19H]", "protein stability index": 5.52},
      {"variant": "SPGHSSAGQEGEDTLRRRTLAPEA", "note": "[L19T]", "protein stability index": 5.55},
      {"variant": "SPGHSSAGQEGEDTLRRRILAPEA", "note": "[L19I]", "protein stability index": 3.39}
    ]}
  ]
}
